The results in this text go back to publication PMC3891507 (2014).

In assay [1] the target is Laminin 111 (Mus musculus, UniProt P19137, LARGE-glycan (control myotubes), Ca2+). Put plainly: solid-phase binding assay.
For assay [2], the target named is Laminin 111 (Mus musculus, UniProt P19137, shortened LARGE-glycan (LargeKD myotubes), Ca2+). Put plainly: solid-phase binding assay.

B1: alpha-dystroglycan (protein)
chain: HWPSEPSEAVRDWKNQLEASMHSVLSDFQEAVPTVVGIPDGTAVVGRSFRVSIPTDLIASSGEIIKVSAAGKEALPSWLHWDPHSHILEGLPLDTDKGVHYISVSAARLGANGSHVPQTSSVFSIEVYPEDHNEPQSVRAASSDPGEVVPSACAADEPVTVLTVILDADLTKMTPKQRIDLLNRMQSFSEVELHNMKLVPVVNNRLFDMSAFMAGPGNAKKVVENGALLSWKLGCSLNQNSVPDIRGVETPAREGAMSAQLGYPVVGWHIANKKPTLPKRLRRQIHATPTPVTAIGPPTTAIQEPPSRIVPTPTSPAIAPPTETMAPPVRDPVPGKPTVTIRTRGAIIQTPTLGPIQPTRVSEAGTTVPGQIRPTLTIPGYVEPTAVITPPTTTTKKPRVSTPKPATPSTDSSTTTTRRPTKKPRTPRPVPRVTTKAPITRLETASPPTRIRTTTSGVPRGGEPNQRPELKNHIDRVDAWVGTYFEVKIPSDTFYDNEDTTTDKLKLTLKLREQQLVGEKSWVQFNSNSQLMYGLPDSSHVGKHEYFMHATDKGGLSAVDAFEIHVHKRPQGDKAPARFKARLAGDPAPVVNDIHKKIALVKKLAFAFGDRNCSSITLQNITRG
Take B1: the dissociation constant (Kd) amounted to 2.93 nM in assay [1] and 4.75 nM in assay [2].

As usually defined, the Kd is the equilibrium constant for the complex coming apart. Low values mean tighter binding, high ones weaker binding.
